Target: Collagen S (soluble, type I, from calf skin) (calf) (UniProt P02453)
Assay: radioligand binding; collagen I monomers (5 µg/mL in 1% acetic acid + 1% NaCl) coated on 96-well plates, blocked with 1% BSA; 125I-labelled A1M (50×10^3 cpm) with increasing unlabelled A1M in PBS + 0.05% Tween, overnight at 4°C; Scatchard analysis

Sequence of UniProt P02453 (P02453 162-1217, chain 1 of 2): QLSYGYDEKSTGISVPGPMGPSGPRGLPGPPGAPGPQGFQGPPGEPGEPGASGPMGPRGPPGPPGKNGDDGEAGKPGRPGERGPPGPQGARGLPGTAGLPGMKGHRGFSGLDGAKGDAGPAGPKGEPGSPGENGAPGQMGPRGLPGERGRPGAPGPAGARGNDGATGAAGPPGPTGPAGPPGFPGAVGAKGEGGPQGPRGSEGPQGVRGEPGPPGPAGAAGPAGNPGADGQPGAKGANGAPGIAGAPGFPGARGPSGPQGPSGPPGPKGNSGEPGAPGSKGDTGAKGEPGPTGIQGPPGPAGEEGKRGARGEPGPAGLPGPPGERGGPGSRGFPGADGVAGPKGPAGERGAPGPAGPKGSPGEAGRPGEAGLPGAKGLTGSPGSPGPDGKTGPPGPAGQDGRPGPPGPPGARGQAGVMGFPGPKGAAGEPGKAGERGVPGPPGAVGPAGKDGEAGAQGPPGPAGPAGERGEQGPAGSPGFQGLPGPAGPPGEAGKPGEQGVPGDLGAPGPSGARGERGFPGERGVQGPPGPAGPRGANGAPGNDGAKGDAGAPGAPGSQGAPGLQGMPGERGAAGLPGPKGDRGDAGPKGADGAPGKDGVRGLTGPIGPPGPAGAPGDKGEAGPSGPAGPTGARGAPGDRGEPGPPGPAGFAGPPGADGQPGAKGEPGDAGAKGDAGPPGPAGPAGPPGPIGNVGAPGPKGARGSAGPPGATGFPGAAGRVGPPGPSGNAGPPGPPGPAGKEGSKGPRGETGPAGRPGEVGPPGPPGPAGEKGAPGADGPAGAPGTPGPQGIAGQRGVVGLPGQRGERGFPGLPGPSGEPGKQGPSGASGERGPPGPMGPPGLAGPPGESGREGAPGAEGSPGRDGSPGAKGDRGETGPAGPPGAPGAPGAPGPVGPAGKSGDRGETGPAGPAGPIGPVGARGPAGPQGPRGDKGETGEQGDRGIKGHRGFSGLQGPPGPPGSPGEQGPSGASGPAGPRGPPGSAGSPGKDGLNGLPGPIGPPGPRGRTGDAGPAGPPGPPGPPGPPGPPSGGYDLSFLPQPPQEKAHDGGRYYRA
Sequence of UniProt P02453 (P02465 80-1117, chain 2 of 2, further chain): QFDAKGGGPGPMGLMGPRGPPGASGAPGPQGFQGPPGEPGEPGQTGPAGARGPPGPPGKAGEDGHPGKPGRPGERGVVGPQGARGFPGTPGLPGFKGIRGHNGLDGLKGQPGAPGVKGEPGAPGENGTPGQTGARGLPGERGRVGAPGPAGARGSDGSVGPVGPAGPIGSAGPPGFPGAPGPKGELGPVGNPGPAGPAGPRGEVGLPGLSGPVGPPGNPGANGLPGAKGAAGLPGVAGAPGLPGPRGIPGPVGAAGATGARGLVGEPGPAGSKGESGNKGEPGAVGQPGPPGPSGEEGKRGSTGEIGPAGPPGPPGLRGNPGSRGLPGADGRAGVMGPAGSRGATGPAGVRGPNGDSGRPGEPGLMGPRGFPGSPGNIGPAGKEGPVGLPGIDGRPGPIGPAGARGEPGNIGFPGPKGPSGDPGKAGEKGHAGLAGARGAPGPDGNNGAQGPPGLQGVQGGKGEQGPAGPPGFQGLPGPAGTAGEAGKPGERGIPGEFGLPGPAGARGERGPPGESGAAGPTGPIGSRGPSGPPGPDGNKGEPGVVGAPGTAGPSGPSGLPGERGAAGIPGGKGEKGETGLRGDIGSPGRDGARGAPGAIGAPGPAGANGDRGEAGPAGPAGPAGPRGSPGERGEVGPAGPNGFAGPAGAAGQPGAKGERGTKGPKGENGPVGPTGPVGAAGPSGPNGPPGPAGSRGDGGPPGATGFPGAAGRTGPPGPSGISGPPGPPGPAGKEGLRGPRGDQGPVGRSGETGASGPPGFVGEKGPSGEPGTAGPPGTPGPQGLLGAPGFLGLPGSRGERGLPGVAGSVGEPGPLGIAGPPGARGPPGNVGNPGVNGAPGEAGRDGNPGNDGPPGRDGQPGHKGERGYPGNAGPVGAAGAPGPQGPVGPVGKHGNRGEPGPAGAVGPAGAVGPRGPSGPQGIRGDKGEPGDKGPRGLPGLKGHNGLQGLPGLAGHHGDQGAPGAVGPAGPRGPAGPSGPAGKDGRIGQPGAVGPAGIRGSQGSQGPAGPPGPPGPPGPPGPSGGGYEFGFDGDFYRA

Kd: 960 nM
B1: Recombinant human α1-microglobulin (A1M) (natural protein)
chain: GPVPTPPDNIQVQENFNISRIYGKWYNLAIGSTCPWLKKIMDRMTVSTLVLGEGATEAEISMTSTRWRKGVCEETSGAYEKTDTDGKFLYHKSKWNITMESYVVHTNYDEYAIFLTKKFSRHHGPTITAKLYGRAPQLRETLLQDFRVVAQGVGIPEDSIFTMADRGECVPGEQEPEPILIPRV
modifications: 125I label (chloramine T method) on the tracer in the solid phase binding assay; colloidal gold label (4-5 nm) in the electron microscopy binding experiment

From article PMC3214066
